These results are taken from the FLAb antibody collection (doi:10.7554/elife.23156).

B1: scFv; the commonest letter at each place (parent)
chain 1: EVKLDETGGGLVQPGRPMKLSCVASGFTFSDYWMNWVRQSPEKGLEWVAQIRNKPYNYETYYSDSVKGRFTISRDDSKSSVYLQMNNLRVEDMGIYYCTGSYYGMDYWGQGTSVTVS
chain 2: DVVMTQTPLSLPVSLGDQASISCRSSQSLVHSNGNTYLRWYLQKPGQSPKVLIYKVSNRFSGVPDRFSGSGSGTDFTLKISRVEAEDLGVYFCSQSTHVPWTFGGGTKLEIK

The variants in the series “fluorescein” derive from B1. The series is described as follows: Kd (Tite-Seq). To be noted: with fluorescein; format: scFv 4-4-20, heavy + light.
In series [1] the parent is B1. As to the kind of experiment: yeast surface expression (ratio to wild type); higher = more expressed. Particulars: format: scFv 4-4-20, heavy + light.

As usually defined, the Kd is the concentration at which binding is half-saturated. In the case of chain 1 Y103Q M105T, the Kd in the series with fluorescein was ≥ 10 µM. Further, in series [1], the yeast surface expression was 0.874.

Turning to chain 1 Y103P Y107E, in the series with fluorescein, the Kd is ≥ 10 µM. For the same variant, the yeast surface expression in series [1] is 0.763.

On to chain 1 Y103P Y107D, for which, in the series with fluorescein, the Kd was ≥ 10 µM. Also, in series [1], the yeast surface expression was found to be 0.617.

For the variant chain 1 Y103M D106F Y107G, the dissociation constant (Kd) with fluorescein was ≥ 10 µM. Also, the yeast surface expression in series [1] stood at 0.265.

For chain 1 Y103N G104T Y107K, the Kd with fluorescein was ≥ 10 µM. The yeast surface expression in series [1] was 0.619.

On to chain 1 Y107M, for which the Kd with fluorescein came to 0.0372 µM. In addition, the yeast surface expression in series [1] turned out to be 0.921.

As to chain 1 Y107S, the Kd with fluorescein worked out at 0.00239 µM. Besides, in series [1], the yeast surface expression is 0.77.

As for chain 1 Y107Q, the Kd in the series with fluorescein came out at 0.0194 µM. In addition, the yeast surface expression in series [1] is 0.757.

On to chain 1 Y107R, for which the Kd in the series with fluorescein is 0.102 µM. In series [1], the yeast surface expression was 0.767.

For chain 1 Y107D, the Kd with fluorescein came to 7.72 µM. In addition, the yeast surface expression in series [1] came out at 0.779.

For the variant chain 1 Y107F, the Kd with fluorescein amounted to 0.0017 µM. For the same variant, the yeast surface expression in series [1] amounted to 0.928.

As for chain 1 Y107N, the Kd with fluorescein turned out to be 0.0104 µM. In addition, the yeast surface expression in series [1] was determined as 0.775.

As to chain 1 Y107E, the Kd with fluorescein was 1.72 µM. The yeast surface expression in series [1] was 0.803.

Turning to chain 1 Y107K, the dissociation constant Kd with fluorescein is ≥ 10 µM. In addition, the yeast surface expression in series [1] was determined as 0.637.

In the case of chain 1 Y107A, the Kd with fluorescein was found to be 7.33 µM. For the same variant, the yeast surface expression in series [1] turned out to be 1.

Turning to chain 1 Y107W, in the series with fluorescein, the Kd was 0.000846 µM. For the same variant, in series [1], the yeast surface expression was found to be 1.11.

As to chain 1 Y107V, the Kd in the series with fluorescein is 0.122 µM. Also, in series [1], the yeast surface expression came to 1.15.

For the variant chain 1 Y107C, the Kd in the series with fluorescein was ≥ 10 µM. Also, the yeast surface expression in series [1] was determined as 0.592.

For the variant chain 1 Y107H, the Kd with fluorescein stood at 0.00251 µM. The yeast surface expression in series [1] is 1.

Take chain 1 Y107I: the Kd with fluorescein was 0.676 µM. In series [1], the yeast surface expression was 0.995.

As to chain 1 Y107P, the Kd with fluorescein was ≥ 10 µM. In addition, the yeast surface expression in series [1] was determined as 0.414.

In the case of chain 1 Y107L, the equilibrium dissociation constant (Kd) with fluorescein amounted to 1.91 µM. Also, the yeast surface expression in series [1] came to 1.01.

chain 1 Y107G: the Kd in the series with fluorescein was ≥ 10 µM. In series [1], the yeast surface expression came out at 0.544.

chain 1 Y107T: in the series with fluorescein, the Kd worked out at 0.000784 µM. The yeast surface expression in series [1] came to 0.965.

For chain 1 Y107R G109H, in the series with fluorescein, the Kd was ≥ 10 µM. Further, the yeast surface expression in series [1] was 0.277.

As to chain 1 Y107R G109S, the Kd with fluorescein is 2.47 µM. The yeast surface expression in series [1] stood at 0.665.

In the case of chain 1 Y107A W108A, the Kd with fluorescein was ≥ 10 µM. Also, the yeast surface expression in series [1] is 0.351.

As to unchanged, in the series with fluorescein, the Kd was determined as 0.00135 µM. Also, the yeast surface expression in series [1] is 1.

As for chain 1 Y103V M105P, the Kd with fluorescein is ≥ 10 µM. In series [1], the yeast surface expression is 0.474.

As for chain 1 Y107N G109K, the Kd in the series with fluorescein was ≥ 10 µM. Further, in series [1], the yeast surface expression was 0.306.

As to chain 1 Y107N G109S, the Kd in the series with fluorescein amounted to 0.0391 µM. In addition, the yeast surface expression in series [1] amounted to 0.836.

On to chain 1 Y107N G109P, for which, in the series with fluorescein, the Kd was ≥ 10 µM. Further, the yeast surface expression in series [1] was determined as 0.28.

Turning to chain 1 Y103V D106H, in the series with fluorescein, the Kd was ≥ 10 µM. The yeast surface expression in series [1] was 0.384.

In the case of chain 1 Y103N G109P, the equilibrium dissociation constant (Kd) with fluorescein is ≥ 10 µM. In series [1], the yeast surface expression was determined as 0.519.

chain 1 Y103P W108Y: the Kd with fluorescein is ≥ 10 µM. Besides, the yeast surface expression in series [1] came to 0.364.

With chain 1 Y103P W108M, in the series with fluorescein, the Kd is ≥ 10 µM. Also, the yeast surface expression in series [1] is 0.463.

As to chain 1 Y103M M105H D106Y, the Kd with fluorescein is ≥ 10 µM. In addition, the yeast surface expression in series [1] stood at 0.63.

On to chain 1 Y103W D106T, for which the Kd with fluorescein is ≥ 10 µM. For the same variant, the yeast surface expression in series [1] is 0.875.

Regarding chain 1 Y103W D106K, the dissociation constant (Kd) with fluorescein is ≥ 10 µM. In addition, the yeast surface expression in series [1] was 0.245.

With chain 1 Y107Q W108Q, the Kd with fluorescein is ≥ 10 µM. In addition, the yeast surface expression in series [1] was 0.385.

For chain 1 Y107R W108N, the Kd in the series with fluorescein was ≥ 10 µM. Also, the yeast surface expression in series [1] came to 0.495.

As to chain 1 Y103R Y107F, the Kd with fluorescein came to 0.00546 µM. Further, the yeast surface expression in series [1] came out at 0.936.

For chain 1 Y107M G109Q, in the series with fluorescein, the dissociation constant Kd was ≥ 10 µM. In addition, in series [1], the yeast surface expression worked out at 0.353.

As to chain 1 Y107M G109K, in the series with fluorescein, the Kd was ≥ 10 µM. In addition, in series [1], the yeast surface expression was determined as 0.42.

On to chain 1 Y107S G109C, for which the Kd in the series with fluorescein was ≥ 10 µM. Besides, the yeast surface expression in series [1] came out at 0.174.

chain 1 Y103M G109Y: in the series with fluorescein, the Kd was ≥ 10 µM. Besides, in series [1], the yeast surface expression came to 0.265.

For the variant chain 1 Y103M G109W, the Kd in the series with fluorescein is ≥ 10 µM. For the same variant, the yeast surface expression in series [1] worked out at 0.221.

Take chain 1 Y107G W108L G109E: the Kd in the series with fluorescein was ≥ 10 µM. In series [1], the yeast surface expression worked out at 0.331.

With chain 1 Y107W W108T, in the series with fluorescein, the Kd is ≤ 0.000316 µM. Moreover, the yeast surface expression in series [1] was found to be 0.647.

Turning to chain 1 Y107G G109V, in the series with fluorescein, the Kd was ≥ 10 µM. The yeast surface expression in series [1] stood at 0.273.

Consider chain 1 Y103P D106H, for which the equilibrium dissociation constant (Kd) in the series with fluorescein is ≥ 10 µM. The yeast surface expression in series [1] came out at 0.565.

For chain 1 Y103P D106M, the Kd with fluorescein was ≥ 10 µM. Besides, in series [1], the yeast surface expression worked out at 0.742.

For chain 1 Y107K W108Q, the Kd with fluorescein is ≥ 10 µM. Also, in series [1], the yeast surface expression amounted to 0.659.

Consider chain 1 Y107K W108A, for which the Kd with fluorescein is ≥ 10 µM. For the same variant, in series [1], the yeast surface expression came to 0.575.

In the case of chain 1 Y103S G109T, in the series with fluorescein, the Kd was ≥ 10 µM. For the same variant, in series [1], the yeast surface expression was 0.469.

In the case of chain 1 Y103M G104M M105L, the Kd in the series with fluorescein is ≥ 10 µM. The yeast surface expression in series [1] was determined as 0.562.

For chain 1 Y107A G109Q, the Kd with fluorescein is ≥ 10 µM. Besides, the yeast surface expression in series [1] was determined as 0.292.

Regarding chain 1 Y107A G109L, the Kd in the series with fluorescein was ≥ 10 µM. Further, the yeast surface expression in series [1] was 0.218.

chain 1 Y107A G109M: the Kd with fluorescein was ≥ 10 µM. In series [1], the yeast surface expression is 0.209.

Consider chain 1 Y107T W108A, for which the dissociation constant Kd with fluorescein was found to be 0.00215 µM. The yeast surface expression in series [1] was 0.476.

chain 1 Y103M W108Q: in the series with fluorescein, the Kd turned out to be 0.0896 µM. In addition, the yeast surface expression in series [1] came to 0.547.

On to chain 1 Y103M W108A, for which the Kd in the series with fluorescein was 0.00746 µM. In addition, the yeast surface expression in series [1] amounted to 0.484.

On to chain 1 Y103M W108M, for which the Kd with fluorescein was found to be 0.000333 µM. Besides, the yeast surface expression in series [1] was 1.13.

Regarding chain 1 Y107L G109V, the Kd with fluorescein was ≥ 10 µM. Also, in series [1], the yeast surface expression came out at 0.298.

As for chain 1 Y107L G109R, the dissociation constant Kd with fluorescein was ≥ 10 µM. In addition, the yeast surface expression in series [1] is 0.343.

For the variant chain 1 Y103V G104W, the Kd with fluorescein was ≥ 10 µM. In series [1], the yeast surface expression stood at 0.419.

Regarding chain 1 Y103W Y107W, in the series with fluorescein, the Kd was determined as 0.00966 µM. Besides, in series [1], the yeast surface expression was determined as 0.724.

Regarding chain 1 Y103M M105N, the Kd in the series with fluorescein came out at 1.14 µM. Besides, the yeast surface expression in series [1] was 1.52.

With chain 1 Y103N D106N W108T, the Kd with fluorescein is ≥ 10 µM. In series [1], the yeast surface expression is 0.736.

chain 1 Y107L W108L: the Kd in the series with fluorescein worked out at 0.000939 µM. For the same variant, the yeast surface expression in series [1] was found to be 0.676.

On to chain 1 Y107L W108D, for which the Kd in the series with fluorescein was ≥ 10 µM. In addition, in series [1], the yeast surface expression worked out at 0.326.

chain 1 Y107D G109R: the Kd in the series with fluorescein is ≥ 10 µM. Further, the yeast surface expression in series [1] was determined as 0.366.

In the case of chain 1 Y103M D106G, the dissociation constant (Kd) in the series with fluorescein is ≥ 10 µM. Besides, in series [1], the yeast surface expression turned out to be 0.479.

Turning to chain 1 Y103W W108L, the Kd in the series with fluorescein came out at 0.00166 µM. In addition, the yeast surface expression in series [1] worked out at 0.629.

Consider chain 1 Y103W W108S, for which, in the series with fluorescein, the Kd was ≥ 10 µM. In addition, the yeast surface expression in series [1] was found to be 0.526.

Consider chain 1 Y103P G109S, for which, in the series with fluorescein, the Kd is ≥ 10 µM. For the same variant, the yeast surface expression in series [1] came out at 0.828.
